As usually defined, the Kd is the free concentration of one partner at which half of the binding sites on the other are occupied at equilibrium, for simple one-to-one binding. Broadly, the EC50 (read off the curve) is the concentration that produces a half-maximal response.

The results in this text go back to patent publication US20170342160A1 (CHIOME BIOSCIENCE, published 2017).

The target of assay [1] is T1, human 5T4 on 5T4-positive tumour cells (MSTO-211H mesothelioma cell line and other tumour cell lines) (human, UniProt Q13641 32-420).
T1 sequence (looked up): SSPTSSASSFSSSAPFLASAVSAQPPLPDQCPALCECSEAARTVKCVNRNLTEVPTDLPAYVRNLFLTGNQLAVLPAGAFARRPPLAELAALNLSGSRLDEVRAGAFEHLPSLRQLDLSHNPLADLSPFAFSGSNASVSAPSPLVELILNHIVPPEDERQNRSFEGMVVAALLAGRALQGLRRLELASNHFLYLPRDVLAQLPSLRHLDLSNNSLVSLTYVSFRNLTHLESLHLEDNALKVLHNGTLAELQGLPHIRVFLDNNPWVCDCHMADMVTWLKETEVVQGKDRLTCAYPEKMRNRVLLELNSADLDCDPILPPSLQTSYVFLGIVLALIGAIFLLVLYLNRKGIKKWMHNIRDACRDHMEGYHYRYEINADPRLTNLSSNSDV
Nature of the assay: cell-based or functional assay.

The target in assay [2] is T2, recombinant extracellular domain of human 5T4 (soluble, produced in house) (human, UniProt Q13641 32-355).
T2 construct: extracellular domain; The signal peptide lies within residues 1-355 and is not part of the secreted protein; also called 5T4-ECD; 5T4 recombinant protein
T2 sequence: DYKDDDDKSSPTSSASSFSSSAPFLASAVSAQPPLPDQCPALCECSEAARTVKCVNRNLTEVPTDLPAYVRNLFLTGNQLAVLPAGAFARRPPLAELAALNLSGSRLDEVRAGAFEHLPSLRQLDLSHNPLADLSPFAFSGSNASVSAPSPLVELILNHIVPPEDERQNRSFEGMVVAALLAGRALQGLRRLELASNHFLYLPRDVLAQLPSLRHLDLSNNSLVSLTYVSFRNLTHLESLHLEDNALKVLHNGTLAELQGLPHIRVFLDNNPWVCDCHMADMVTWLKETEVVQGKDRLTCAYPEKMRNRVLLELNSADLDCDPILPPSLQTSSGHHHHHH
Nature of the assay: row '5T4-binding (KD)'; ELISA on 5T4 extracellular domain (panel A). As for the experimental part:
(§1) For Affinity to 5T4 target antigen an ELISA with the 5T4 antigen is used. Target antigen, 5T4 extra cellular domain, produced in house is coated to polystyrene flat bottom 96 well microplate and blocked. Tribody/sample dilutions were prepared in TBS with 0.2% w/v powdered milk, added to the plate and incubated. Following wash steps, detection antibody is added to the samples (anti-human Kappa light chain AP; e.g. Sigma, Cat. No. K4377). Bound detection antibody is measured by development of a colorimetric reaction upon addition of p-NPP (Cat-No: N7653, Sigma) and the absorbance quantified on a micro-well plate reader and processed by non-linear regression using graph Pad Prism software.
In general terms: In an ELISA, binding on a coated surface is turned into a signal by an enzyme label.

Assay [3] addresses T2, recombinant extracellular domain of …. Nature of the assay: ELISA on coated 5T4-ECD. As for the experimental part: as §1
Assay [4] has the same target. Nature of the assay: ELISA on 5T4 protein (extracellular domain). As for the experimental part:
as §1

For assay [5], the target named is T3, human CD3 (CD3 receptor complex on T cells) on Jurkat cells and on human PBMC (human, UniProt P07766 23-207).
T3 construct: whole, on cells; The other chains of the complex are not specified; also called human CD3 domain; CD3 epsilon
Nature of the assay: row 'CD3 binding (KD)'; cellular ELISA on Jurkat T-cells (panel B). As for the experimental part: For Affinity to the human CD3 domain, a cell based ELISA with a T-cell lymphoma (CD3+) cell line, Jurkat, was used. Jurkat cells are collected, washed and aliquoted into each well of a round-bottom 96 well microplate. Tribody/sample dilutions were prepared in PBS, added to the cells and incubated. Following wash steps, detection antibody is added to the samples (anti-human Kappa light chain AP; e.g. Sigma, Cat. No. K4377). Bound detection antibody is measured by development of a colorimetric reaction upon addition of p-NPP (Cat-No: N7653, Sigma) and the absorbance quantified on a micro-well plate reader and processed by non-linear regression using graph Pad Prism software.

The target in assay [6] is T2, recombinant extracellular domain of …. Nature of the assay: ELISA on recombinant 5T4 extracellular domain. As for the experimental part: as §1
For assay [7], the target named is T3, human CD3 (CD3 receptor complex on T …). Nature of the assay: cell binding titration (Abs 405nm) on human PBMC, donor PBMC#5886.
The target is the same in assay [8]. Nature of the assay: cell binding titration (Abs 405nm) on human PBMC, donor printed as PBMC49966.
Assay [9] deals with T1, human 5T4 on 5T4-positive tumour cells …. Nature of the assay: FACS titration on MSTO-211H cells. As for the experimental part:
(§2) To access the binding of anti-5T4 molecules (scFv, Fab and Tribody format) to the human 5T4 domain, the biphasic mesothelioma cell line MSTO-211H (ATCC CRL-2081) was tested by FACS binding assay with direct labelled molecules with Allophycocyanin (APC) by the Lightning-Link® APC kit from Innova Biosciences, following the manufacturer instructions.
(§3) Cells are then washed twice with PBS and binding to cell surface is accessed by flow cytometry using a BD FACsalibur apparatus.

Assay [10] shares this target. Nature of the assay: FACS titration on MSTO-211H cells (row 'FACS' of the inset table 'Method / KD Tb535H (nM)'). As for the experimental part:
as §2, §3

Assay [11] concerns the target T3, human CD3 (CD3 receptor complex on T …). Nature of the assay: flow cytometry titration on peripheral blood cells of 3 different donors; peripheral blood cells of 3 different donors; cell-binding titration, KD = 50% binding concentration.
For assay [12] the target is unchanged. Nature of the assay: cell binding titration (Abs 405nm) on human PBMC, donor PBMC#2053.

T3 sequence (P07766 23-207, one chain of several): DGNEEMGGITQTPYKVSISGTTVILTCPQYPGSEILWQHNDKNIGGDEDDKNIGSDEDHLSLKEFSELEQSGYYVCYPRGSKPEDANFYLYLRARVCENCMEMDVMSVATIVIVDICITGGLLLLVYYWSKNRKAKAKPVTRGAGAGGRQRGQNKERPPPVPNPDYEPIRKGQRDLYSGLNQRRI

B1: Tb535C, chimeric 5T4xCD3 Tribody fusion protein based on murine 5T4 binders (bispecific antibody)
chain 1: EVQLQQSGPDLVKPGASVKISCKASGYSFTGYYMHWVKQSPGKGLEWIGRINPNNGVTLYNQKFKDKATLTVDKSSTTAYMELRSLTSEDSAVYYCARSTMITNYVMDYWGQGTSVTVSSASTKGPSVFPLAPSSKSTSGGTAALGCLVKDYFPEPVTVSWNSGALTSGVHTFPAVLQSSGLYSLSSVVTVPSSSLGTQTYICNVNHKPSNTKVDKKVEPKSCDKTHTGPGGGSPGQVQLVQSGAELKKPGASVKVSCKASGYTFTRYTMHWVRQAPGQCLEWMGYINPSRGYTNYNQKFKDKATLTADKSTSTAYMELRSLRSDDTAVYYCARYYDDHYSLDYWGQGTLVTVSSASGGGGSGGGGSGGGGSAGDIQLTQSPSILSASVGDRVTITCRASSSVSYMNWYQQKPGKAPKRWIYDTSKVASGVPYRFSGSGSGTEYTLTISSMQPEDFATYYCQQWSSNPLTFGCGTKVEIK
chain 2: SIVMTQTPTSLLVSAGDRVTITCKASQSVSNDVAWYQQKPGQSPKLLISYTSSRYAGVPDRFSGSGYGTDFTLTISSVQAEDAAVYFCQQDYNSPPTFGGGTKLEIKRTVAAPSVFIFPPSDEQLKSGTASVVCLLNNFYPREAKVQWKVDNALQSGNSQESVTEQDSKDSTYSLSSTLTLSKADYEKHKVYACEVTHQGLSSPVTKSFNRGECGPGGGSPGEVQLVQSGPDDVKPGGSVKISCKASGYSFTGYYMHWVKQSPGKCLEWIGRINPNNGVTLYNQKFKDKATLTVDKSSTTAYMELRSLTSEDSAVYYCARSTMITNYVMDYWGQGTLVTVSSASGGGGSGGGGSGGGGSAGDIVMTQTPTSLLVSAGDRVTITCKASQSVSNDVAWYQQKPGQSPKLLISYTSSRYAGVPDRFSGSGYGTDFTLTISSVQAEDAAVYFCQQDYNSPPTFGCGTKLEIKSG
notes: Heterodimer through CH1:CL; also called Tribody based on the murine variable domains
Consider B1, for which the “EC50 of cytotoxicity (MSTO-211H target cells with human PBMC)” value in assay [1] stood at 0.01 nM. In addition, the Kd in assay [2] came to 0.8 nM; in assay [3], 1 nM; in assay [5], 30 nM. Also, in assay [4], the “EC50 (read off the curve)” value was around 0.7 nM.

B2: Tb535H, humanized 5T4xCD3 Tribody fusion protein (Fab(5T4) with C-terminal dsFv(CD3) and dsFv(5T4)) (bispecific antibody)
chain 1: QVQLVQSGAEVKKPGASVKVSCKASGYSFTSYYMHWVKQSPGQGLEWIGRINPNNGVTLYNQKFKDRVTMTRDTSISTAYMELSRLRSDDTAVYYCARSTMITNYVMDYWGQGTLVTVSSASTKGPSVFPLAPSSKSTSGGTAALGCLVKDYFPEPVTVSWNSGALTSGVHTFPAVLQSSGLYSLSSVVTVPSSSLGTQTYICNVNHKPSNTKVDKKVEPKSCDKTHTGPGGGSPGQVQLVQSGAELKKPGASVKVSCKASGYTFTRYTMHWVRQAPGQCLEWMGYINPSRGYTNYNQKFKDKATLTADKSTSTAYMELRSLRSDDTAVYYCARYYDDHYSLDYWGQGTLVTVSSASGGGGSGGGGSGGGGSAGDIQLTQSPSILSASVGDRVTITCRASSSVSYMNWYQQKPGKAPKRWIYDTSKVASGVPYRFSGSGSGTEYTLTISSMQPEDFATYYCQQWSSNPLTFGCGTKVEIKSG
chain 2: not shown
notes: also called Tb535H-1120; Tb-5T4
Take B2: the “EC50 (read off the curve)” value was around 1 nM in assay [6], around 5 nM in [9] and around 1 nM in [4]. The “EC50 of cytotoxicity (MSTO-211H target cells with human PBMC)” value in [1] worked out at 0.007 nM. In addition, the Kd in [7] was 24 nM; in assay [2], 1.1 nM; in assay [8], 26 nM; in assay [3], 0.9 nM; in assay [10], 4.6 nM; in assay [11], around 25 nM. In addition, the values for the Kd in [5] and in assay [12] were 23 nM and 26 nM, respectively.

B3: Fab(5T4), humanized VH(5T4) SEQ ID 6 and VL(5T4) SEQ ID 19 in Fab format (Fab, V domains shown)
VH: QVQLVQSGAEVKKPGASVKVSCKASGYSFTSYYMHWVKQSPGQGLEWIGRINPNNGVTLYNQKFKDRVTMTRDTSISTAYMELSRLRSDDTAVYYCARSTMITNYVMDYWGQGTLVTVSS
VL: DIVMTQSPDSLAVSLGERATINCKASQSVSNDVAWYQQKPGQPPKLLIYYTSSRYAGVPDRFSGSGSGTDFTLTISSLQAEDVAVYYCQQDYNSPPTFGGGTKLEIK
notes: Fab format
For B3, the “EC50 (read off the curve)” value in assay [6] is around 2 nM. The Kd in assay [3] was determined as 2.9 nM.

B4: BiTE format, scFv(5T4)-scFv(CD3) fusion with humanized VH(5T4) SEQ ID 6 and VL(5T4) SEQ ID 19 (bispecific antibody, V domains shown)
VH: B3 VH
VL: B3 VL
notes: The molecule is a single polypeptide, scFv(5T4)-scFv(CD3); also called scFv-scFv format
Turning to B4, the Kd in [3] was determined as 2 nM.

B5: IgG(5T4), humanized VH(5T4) SEQ ID 6 and VL(5T4) SEQ ID 19 in IgG format (antibody, V domains shown)
VH: B3 VH
VL: B3 VL
notes: also called IgG1(5T4)
With B5, the Kd in assay [3] was 0.7 nM.

B6: dsFv(5T4), humanized VH(5T4) SEQ ID 6 and VL(5T4) SEQ ID 19 in dsFv format (scFv)
scFv: QVQLVQSGAEVKKPGASVKVSCKASGYSFTSYYMHWVKQSPGQCLEWIGRINPNNGVTLYNQKFKDRVTMTRDTSISTAYMELSRLRSDDTAVYYCARSTMITNYVMDYWGQGTLVTVSSASGGGGSGGGGSGGGGSAGDIVMTQSPDSLAVSLGERATINCKASQSVSNDVAWYQQKPGQPPKLLIYYTSSRYAGVPDRFSGSGSGTDFTLTISSLQAEDVAVYYCQQDYNSPPTFGCGTKLEIK
notes: also called dsFvhu5T4; scFv
As to B6, in assay [6], the “EC50 (read off the curve)” value is around 1 nM. Besides, the Kd in assay [3] was found to be 2.3 nM.
